Data published in patent publication US10781452B2, “FLT3 receptor antagonists for the treatment or the prevention of pain disorders” (INSTITUT NATIONAL DE LA SANTE ET DE LA RECHERCHE MEDICALE …, priority 2010, dated 2020).

How the values were obtained:
[1] = target: T1, full-length hFLT3 (Homo sapiens, UniProt P36888); test: TR-FRET displacement of Red-FL binding, HEK cells expressing full-length hFLT3; conditions: HEK cells expressing full-length hFLT3, 0.5 nM Red-FL
T1 construct: host or cells: HEK293T
T1 sequence (P36888 27-993): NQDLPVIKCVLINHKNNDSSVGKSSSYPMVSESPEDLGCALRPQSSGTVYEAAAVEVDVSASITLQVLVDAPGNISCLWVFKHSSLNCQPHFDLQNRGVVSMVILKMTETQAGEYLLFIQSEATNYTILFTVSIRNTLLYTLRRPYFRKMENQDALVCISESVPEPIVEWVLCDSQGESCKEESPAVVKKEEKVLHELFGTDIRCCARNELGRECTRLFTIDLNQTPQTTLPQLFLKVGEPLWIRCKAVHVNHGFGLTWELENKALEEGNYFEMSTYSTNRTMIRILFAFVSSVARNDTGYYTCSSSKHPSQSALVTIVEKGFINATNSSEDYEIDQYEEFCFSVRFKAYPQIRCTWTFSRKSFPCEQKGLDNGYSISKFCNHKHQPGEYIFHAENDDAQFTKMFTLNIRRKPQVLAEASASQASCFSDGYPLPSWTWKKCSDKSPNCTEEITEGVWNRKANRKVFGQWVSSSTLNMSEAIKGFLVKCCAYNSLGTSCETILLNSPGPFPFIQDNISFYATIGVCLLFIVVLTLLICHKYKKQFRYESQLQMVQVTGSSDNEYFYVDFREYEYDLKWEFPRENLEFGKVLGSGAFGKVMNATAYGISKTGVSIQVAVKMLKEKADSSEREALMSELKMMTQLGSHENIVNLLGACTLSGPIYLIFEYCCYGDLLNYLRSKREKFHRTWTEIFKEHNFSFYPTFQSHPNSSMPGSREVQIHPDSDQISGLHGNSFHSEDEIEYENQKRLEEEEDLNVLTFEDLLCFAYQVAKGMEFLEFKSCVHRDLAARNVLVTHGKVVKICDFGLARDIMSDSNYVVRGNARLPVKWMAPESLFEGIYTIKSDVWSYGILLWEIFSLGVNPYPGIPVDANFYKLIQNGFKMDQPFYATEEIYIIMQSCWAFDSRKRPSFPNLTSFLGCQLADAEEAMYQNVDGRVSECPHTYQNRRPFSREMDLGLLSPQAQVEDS
Experimental: The binding of the A3 antibody to full-length hFLT3 and mFLT3 was measured by displacement of extracellular FL binding on recombinant HEK cells by using time-resolved fluorescence resonance energy transfer (TR-FRET).
Chemicals and reagents. The Tag-lite® labeling medium was from Cisbio Bioassays (Condolet, France). The Lumi4-Tb derivative of O6-Benzylguanine was synthesized by Cisbio Bioassays and is commercialized as SNAP-Lumi4-Tb (Cisbio Bioassays, Ref. SSNPTBE).
A recombinant rh-FLT3-L was produced as previously reported (Verstraete K, et al. Efficient production of bioactive recombinant human Flt3 ligand in E. coli. Protein J, 2009 28: 57-65) and labeled with a red fluorescent probe (Red-FL). Poly-L-ornithine (MW of 30,000-70,000 daltons) was from Sigma-Aldrich. The plasmids encoding for the SNAP tagged human FLT3 (pSNAP-hFLT3) or the mouse FLT3 (pSNAP-mFLT3) used for transient transfection was obtained from Cisbio Bioassays. Monoclonal antibodies against FLT3 (8F2) and phosphotyrosine FLT3 (PY969) were purchased from Cell Signaling Technology and labeled with Lumi4-Tb and d2 respectively, by Cisbio.
Cell culture. HEK293T cells, used for binding assays, were maintained in DMEM Glutamax (Invitrogen) supplemented with antibiotics (penicillin 50 U/ml, streptomycin 50 μg/ml) and 10% heat-inactivated Fetal Calf Serum.
Transfection procedures. […]

[2] = test system: Fc fragment alone; test: ELISA binding to Fc fragment alone; conditions: antibody at 10 μg/mL
Experimental: The A3 antibody directed against FLT3 was produced by a phage display strategy and the antibody selection was performed by using ECD of human or mouse recombinant FLT3 produced in NSO cell line. To identify antibodies cross-reacting with both human and mouse FLT3, phages were selected by three rounds of panning, according to methods well known in the art (Philibert, P. et al. A focused antibody library for selecting scFvs expressed at high levels in the cytoplasm. BMC Biotechnol. 7, 81; 2007), first against the ECD of human FLT3, then against the ECD of mouse FLT3 and then against the ECD of human FLT3. A batch of one selected antibody named A3 was tested for its ability to bind to the ECD of human or mouse recombinant FLT3 using an ELISA technique.

B1: A3 antibody: human monoclonal antibody against FLT3; VH SEQ ID NO:1, VL SEQ ID NO:2 (antibody, V domains shown)
VH: EVQLVESGGSLVKPGGSLRLSCAASGFTFSNSYMNWVRQAPGKGLEWISDISGSSRDIDYADFVKGRFTISRDNATNSLYLQMNSLRAEDTAVYYCVRSGNSGMDVWGRGTLVTVSS
VL: QSVLTQPASVSGSPGQSITISCAGTSSDVGGGYYVSWYQQHPGKAPKLMIYYDSYRPSGVSNRFSGSKSGNTASLTISGLQAEDEADYYCSSYTNNSTRVFGGGTKLEIK
modifications: Synthetic VH domain of A3; Synthetic VL region of A3
IC50, displacement of FL binding [1]: about 17 μg/ml | ELISA immunoreactivity against Fc fragment alone [2]: not against the Fc fragment alone
